Test results published in US20180155712, “COMPOSITIONS AND METHODS FOR IDENTIFYING POLYNUCLEOTIDES OF INTEREST” (The Regents of the University of California, published 2018).

Molecular target: T7 RNA polymerase (Bacteriophage T7, UniProt P00573 P00573:1-883)
Test: functional promoter recovered as cDNA by in vitro transcription and deep sequencing; relative strength not given
Protocol: Transcription with T7 RNA polymerase, phenol/chloroform/iso-amyl alcohol extraction, ethanol precipitation, and reverse transcription were performed as described for Examples 1 and 2, above. PCR was done of the resulting cDNA with primers that added appropriate indexed sequences for Illumina deep sequencing, as described above and herein. PCR was also done directly on the library plasmid, again adding the appropriate sequences for Illumina deep sequencing, but with a different index. The appropriately sized PCR products from the cDNA and from the plasmid library were gel purified. An equal mass amount of the two products were mixed and submitted for Illumina MiSeq deep sequencing. Approximately 5 million sequences were generated for each of the cDNA and plasmid library after separation based on the primer indices. For both cDNA and library PCR products, non-promoter sequences were trimmed, promoter sequences were separated based on the number of mutations present in each sequence, and the number of times any given sequence was present was determined. […] See, SEQ ID NOs: 10-73473 listed in the text-formatted computer readable sequence listing filed herewith, and incorporated herein by reference. […]

Chain of T7 RNA polymerase (P00573 whole entry, one chain of several): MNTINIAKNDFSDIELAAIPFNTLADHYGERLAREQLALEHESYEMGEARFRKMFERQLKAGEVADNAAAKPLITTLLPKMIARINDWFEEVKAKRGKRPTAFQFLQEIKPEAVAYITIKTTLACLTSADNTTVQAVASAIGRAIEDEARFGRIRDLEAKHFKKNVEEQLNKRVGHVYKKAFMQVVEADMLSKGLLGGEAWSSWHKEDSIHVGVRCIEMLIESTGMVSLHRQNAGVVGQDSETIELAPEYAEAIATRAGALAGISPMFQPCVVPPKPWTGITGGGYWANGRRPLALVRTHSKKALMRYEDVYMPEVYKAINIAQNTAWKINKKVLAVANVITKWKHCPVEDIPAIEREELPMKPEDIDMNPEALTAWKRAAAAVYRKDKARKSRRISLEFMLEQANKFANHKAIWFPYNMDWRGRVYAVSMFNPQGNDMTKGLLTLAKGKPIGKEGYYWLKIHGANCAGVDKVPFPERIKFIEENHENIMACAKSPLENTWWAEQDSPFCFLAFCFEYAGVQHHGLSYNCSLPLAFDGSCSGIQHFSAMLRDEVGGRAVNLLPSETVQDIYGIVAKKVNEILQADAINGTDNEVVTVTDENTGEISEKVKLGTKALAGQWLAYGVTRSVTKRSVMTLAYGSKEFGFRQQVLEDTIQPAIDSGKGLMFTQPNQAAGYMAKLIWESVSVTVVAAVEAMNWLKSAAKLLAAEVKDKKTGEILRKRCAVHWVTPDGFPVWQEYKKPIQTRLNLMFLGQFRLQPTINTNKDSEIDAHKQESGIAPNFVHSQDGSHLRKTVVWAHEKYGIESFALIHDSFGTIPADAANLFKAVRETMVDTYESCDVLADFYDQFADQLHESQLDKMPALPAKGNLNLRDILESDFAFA

B1: mutant T7 promoter SEQ ID NO: 10 (dsDNA)
DNA 1: TAATACGACTCGCTATCG
DNA 2: CGATAGCGAGTCGTATTA
  binding result: binds
